Laboratory results as given in the nanobody polyreactivity screen of Harvey et al. (2022).

Experiment: yeast display, Sf9 membrane polyspecificity reagent, FACS + sequencing; frameworks hold sequencing errors
Method in brief: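 Nanobodies came from a synthetic yeast display library in Saccharomyces cerevisiae BJ5465, induced with galactose for 36–48 hours and stained for 1 hour at 4 °C with 10% biotinylated, detergent-solubilized Sf9 membrane reagent. Cells were enriched on streptavidin microbeads and then FACS-sorted, with low and high (top ~1%) gates set on anti-HA fluorescence for expression and streptavidin fluorescence for reagent binding. Each polyreactivity label reflects the gate a clone came from. Genes were amplified by colony PCR, sequenced by MiSeq 2 × 250 and filtered by CDR length.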

Row | Sequence | polyreactivity (PSR sort gate)
1 | QVQLVESGGGLVQAGGSLRLSCAASGSTIDTYAMGWYRLAPGKERELVAGISWSGGSTFYADSVKGRFTFSRDNAKNTVDLHMNSLKPEDTAVYYCAKQLWVGVKYDYWGQGTQVTVSS | low polyreactivity
2 | QVQLVESGGGLVQAGGSLRLSCAASGSTIEFNAMGWYRQAPGKERELVAAISGSGASTYYADSVKGRFTISRDNAKNTVYVQMNSLKPEDTAVYYCNADSLYYDYQTVDVQALDYWGQGTQVTVSS | low polyreactivity
3 | QVQLVESGGGLVQAGGSLRLSCAASGSTIFENVMGWYREAPRKEREFVAAINTSGRSTYYADSVKGRFTISRDNAKNTVFLQMNSLKPEDTAVDYCARDSYWEMDYWGQGTQVTVSS | low polyreactivity
4 | QVQLVESGGGLVQAGGSLRLSCAASGSTIFGYALGSYRQAPGKERELVAASSSGGSTYYADSVKGRFTISRDNAKNTVYLQMNSLKPEDTAVYYCAATRRLKRYWAQGTQVTVSS | high polyreactivity
5 | QVQLVESGGGLVQAGGSLRLSCAASGSTIIRNTMGWYRKAPGKERELVAAITRSGGSTFYADSVKGRFTISRDNAKNTVYLQMNSLKPEDTAVYYCAAVRSKLYYYWGQGTQVTVSS | high polyreactivity
6 | QVQLVESGGGLVQAGGSLRLSCAASGSTIKTYATMGWYRQAPGKERELVAAITACTSTNYADSVKGRFTISRDNAKNTVYLQMNSLKPEDTAVYYGAADDYYNWYLGEPGDYWGQGTQVTVSS | low polyreactivity
7 | QVQLVESGGGLVQAGGSLRLSCAASGSTILSNAMGWYRQAPGKERELVADITSGGSTYYADSVKGRFTISLDNAKNTVYLQMNSLKQEDTAVYYCAVRYYLRRYDYWGQGTQVTVSS | low polyreactivity
8 | QVQLVESGGGLVQAGGSLRLSCAASGSTILYNTMGWYRQAPGKERELVATITSRGDRTYYADSVKGRFTISRDNAKNTVYLQMNSLKPEDTAVDYCAADRTDFWPYDYWGQGTQVTVSS | low polyreactivity
9 | QVQLVESGGGLVQAGGSLRLSCAASGSTINRNAMGWYRQAPGKERELVAGISYGGGSTYADSVKGRFTISRDNAKNTVYLQMNSLKPEDTAVYYCTADFRHGHRHDMNYWGQGTQVTVSS | low polyreactivity
10 | QVQLVESGGGLVQAGGSLRLSCAASGSTINWNAMGWYRQAPGKERELVASINRGDSTYYADSVKGRFTISRDNAKNTVYLQMNSLKPEDTAVYYCAARRYYSLRTFLYCFSKYDYWGQGTQVTVSS | high polyreactivity
11 | QVQLVESGGGLVQAGGSLRLSCAASGSTINYNAMGWYRQAPGKERELVAAIDSGVSTNYADSVKGRFTITRDNAKNTVYLQMNSLKPEDTAVYYCNADPDYFDYWGQGTQVTVSS | low polyreactivity
12 | QVQLVESGGGLVQAGGSLRLSCAASGSTIPDYTMGWYRQAPGKEREFVAAISRIGGTYYADSVKGRFSISRDNAKNTVYLQMNSLKPEDTAVYSCNADPQGLSGRYHGFDYWGQGTQVTVSS | low polyreactivity
13 | QVQLVESGGGLVQAGGSLRLSCAASGSTIPLYAMGWYRQAPGKERELVAAISRRGGRTYYADSVKGRFTISRDNAKNTVYLQMNSLKPEDTAVYYCATAVGSRVDYWGQGTQVTVSS | high polyreactivity
14 | QVQLVESGGGLVQAGGSLRLSCAASGSTIPPYAMGWYRQAPGKERELVAAITSGGSTYYAESVKGRFTISRDNAKNTVYLQMNSLKPEDTAVYSCAASWDPWEYDYWGQGTQVTVSS | low polyreactivity
15 | QVQLVESGGGLVQAGGSLRLSCAASGSTIPRNAMGWYRPAPGKERELVAAITSGGSTNYADSVKGRFTLSRDNAKNTVYLQINSLKPEDTAVYYCAADEQVNTQYVVWGDYWGQGTQVTVSS | low polyreactivity
16 | QVQLVESGGGLVQAGGSLRLSCAASGSTIPSNAMGWYRQAPGKERELVASITYSDGTTRYADSVKGRFTISRDNAKNTVYLLMNSLKPEDTAVYYCNAVYYREGMDYWGLGTQVTVSS | low polyreactivity
17 | QVQLVESGGGLVQAGGSLRLSCAASGSTIPSYAMGWYRAAPGKERELVASITYSDGPTRYADSEKGRFTISRDNAKNTVFLQMNSLKPEDTAVYYCNAVYYREGMDYWGQGNQVTVSS | low polyreactivity
18 | QVQLVESGGGLVQAGGSLRLSCAASGSTIPYYAMGWYRPAPGKERELVARIRWNGDSTYYADSVKGRFTISRDNAKNTVYLQMNSLKPEDTAVYYCARQGYTLYRTRYRYDYWGQGTQVTASS | high polyreactivity
19 | QVQLVESGGGLVQAGGSLRLSCAASGSTIRHYAMGWYRQAPGKERELVAAISYSGGSTYYADSVKGRFTISRYNAKNNVYLQMNSLKPEDTAVYYCAARSPSKMGYWGQGTQVTVSS | high polyreactivity
20 | QVQLVESGGGLVQAGGSLRLSCAASGSTIRSNAMGWYRQEPGKERELVAAISRTGGRTYYADSVKGRFTISRDNAKNTVYLQMNSLKPEDTAVYYCARPDKGLEYSENYYWGQGTQVTVSS | high polyreactivity
21 | QVQLVESGGGLVQAGGSLRLSCAASGSTISGYAMGWYRQAPGKEREFVASIRRSGGSTYYADSVKGRFTISRDNAKNTVYLQMNSLKPEDTAVYYCAKRYVVSRGDYWGQGTQVTVSS | high polyreactivity
22 | QVQLVESGGGLVQAGGSLRLSCAASGSTISRNAMGWSRQAPGKERELVAAISWRGGRTYYADSVKGRFTISRDNAKNTVYLQMNSLKPEDTAVYYCAAEHKYRYDYWGQGTQVTVSS | low polyreactivity

Row | Sequence | polyreactivity (PSR sort gate)
23 | QVQLVESGGGLVQAGGSLRLSCAASGSTISSYAMGWYRPAPGKERELVAANTSGGSTYYADSLKGRFTISRDNAKNSVSLQMNSLKPEDTAVYYCDLGSTTMDYWGQGTQVTVSS | low polyreactivity
24 | QVQLVESGGGLVQAGGSLRLSCAASGSTISYYAMGWYRQAPGKERELVAAITWNGGSTYYADSVKGRFTISRDNAKNTVYLQMNSLKPEDTAVYYCAKDSYYYDYDYWGQGTQVTVSS | low polyreactivity
25 | QVQLVESGGGLVQAGGSLRLSCAASGSTIVGYAMGWYRQAPGKERELVAAISGSGTSTYYADSVKGRFTISRDNAKNTVYLQMNSLKPEDSAVYYCNADPIFVYSSYNYWGQGTQVTVSS | low polyreactivity
26 | QVQLVESGGGLVQAGGSLRLSCAASGSTIVRYVMGWYRQAPGKERELVAAISRRGGSTYYADSVKGRFTISRDNAKNTVYLQMNSLKPEDTAVYYCARTVGYRTLLESDSWGQGTQVTVSS | high polyreactivity
27 | QVQLVESGGGLVQAGGSLRLSCAASGSTIVTKAMGWYRQAPGKERELVAAISFSVGRTYYADSVKGRFTISRDNAKNTVYLQMNSLKPEDTAVYYCAAGLRVTPALHSYGYWGQGTQVTVSS | high polyreactivity
28 | QVQLVESGGGLVQAGGSLRLSCAASGSTIWSYAMGWYRQAPGKERELVASITWSGGSTYADSVKGRFTISRDNAKNTVYLQMNSLKPEDTAVYYCARESTLTYYSDDFDYWGQGTQVTVSS | low polyreactivity
29 | QVQLVESGGGLVQAGGSLRLSCAASGSTIYGYTMGWYRQAPGKEREMVAVITSGGSTYFADSVKGRFTISRDNAKNTVYLQMNSLKPEVTAVYYCAKRYGYTAYGRPWRIGRTYDYWGQGTQVTVSS | low polyreactivity
30 | QVQLVESGGGLVQAGGSLRLSCAASGSTIYLNAMGWYRQAPGKERELVAAIDYRGGSTYYADSVKGRFTISRDNAKNTVYLQMNSLKPEDTAVYYCNADYVYVHYQPGYYWGQGTQVTVSS | low polyreactivity
31 | QVQLVESGGGLVQAGGSLRLSCAASGSTIYNYAMGWYRQATGKERELVAVISRSGGRTYYADSVKGRFTISRDNAKNTVYLQMNSLKPEDTAVYYCAADTYRGYDFDYWGQGTQVTVSS | high polyreactivity
32 | QVQLVESGGGLVQAGGSLRLSCAASGSTIYPYAMGWYRQAPGKERELVAAISSGGRTYYADSVKGRFTISRDNAKNTVYLQMNSLKPEDTAVYYCAARVTKKYRRTYDYWGQGTQVTVSS | high polyreactivity
33 | QVQLVESGGGLVQAGGSLRLSCAASGSTIYTYVMGWYRQAPGKERELVAAISWSGSSTYYADSVKGRFTISRDNAKNTVYLQMNSLKPEDTAVYYCNAQYRRGWWGVEYGYWGQGTQVTVSS | low polyreactivity
34 | QVQLVESGGGLVQAGGSLRLSCAASGSTIYYNAMGWYRQAPGKERELVAAISKSSSRTYYADSVKGRFTISRDNAKYSVYLQMNSLKPEDTAVYYCAADAVYYHFDYWGQGTQVTVSS | high polyreactivity
35 | QVQLVESGGGLVQAGGSLRLSCAASGSTIYYYALGWYRQAPGKERELVAAISWSGASTFYADSVKGRFTISRDNAKNTVDLKMNSLKPVDTAVYYCAAVIKGWGQGTQVTVSS | high polyreactivity
36 | QVQLVESGGGLVQAGGSLRLSCAASGSTLAGYAMGWYRQAPGKERELVAAIDWTGGSTTYADSVKGRFTISRDNAKNTVYLQMNSLKPEDTAVYYCNVDLGVNGDYWGQGTQVTVSS | low polyreactivity
37 | QVQLVESGGGLVQAGGSLRLSCAASGSTLAGYAMGWYRQAPGKERELVAAITRRGGRTYYADSVKGRFTISRDNAKNTVYLQMNSLKPEDTAVYYCAAQRSVKVDYWGQGTQVTVSS | high polyreactivity
38 | QVQLVESGGGLVQAGGSLRLSCAASGSTLAGYAMGWYRQAPGQERELVAAIDWTGGSTTYADSVKGRFTISRDNAKNTVYLQMNSLKPEDTAVYYCNVDLGVNCEYWGQGTQVTVSW | low polyreactivity
39 | QVQLVESGGGLVQAGGSLRLSCAASGSTLAKYTMGWYRQAPGKERELVATISRRGGSTYYADSVKGRFTISRDNAKNTVYLQMNSLKPEDTAVYYCNAVGHTSIRRALDILDYWGQGTQVTVSS | high polyreactivity
40 | QVQLVESGGGLVQAGGSLRLSCAASGSTLAPYVMGWYSQAPGKERELVAVISTRTGRTYYADSVKGRFTISRDNAKNTVSLQMNSLKPEDTAVYYCNAYPHAYTGSTREGDYWGQGTQVTVSS | high polyreactivity
41 | QVQLVESGGGLVQAGGSLRLSCAASGSTLASYAMGWYSQAPGKERELVAVIDSGGSTYYADSVKGRFTISRDNAKNSVYVQMNSLKPEDTAVYDCAAGWEFSGVLTLFGYWGQGTQVTVSS | low polyreactivity
42 | QVQLVESGGGLVQAGGSLRLSCAASGSTLATYTMGWYRLAPGTVRELVGAISFGGSTYYADSVKGRFTISRDNAKNTVYLQMNSLKPVDTAVYYCAVDGDSYWGAYYYSDGYWGQGTQVTVSS | low polyreactivity
43 | QVQLVESGGGLVQAGGSLRLSCAASGSTLDSNAMGWYRQAPGKERELVAGIDWSGGSTYADSVKGRFTISRDNAKNTVYLQMNSLKPEDTAVYYCNRKLTRFTSFPLDYWGQGTQVTVSS | low polyreactivity
